Test results published in paper doi:10.1101/2022.06.19.496723.

Molecular target: NnlA (N-nitroglycine lyase) from Variovorax sp. strain JS1663, tag-free after TEV cleavage (Variovorax sp. strain JS1663)
Experiment: SEC

NnlA (N-nitroglycine lyase) from Variovorax sp. strain JS1663, tag-free after TEV cleavage (enzyme)
stoichiometry N: 2
